Consider 27 molecules from PMC10786891, “Massively parallel profiling of RNA-targeting CRISPR-Cas13d”.

First the molecules themselves.
T1: EsCas13d, nuclease-dead (Eubacterium siraeum, UniProt B0MS50, R295A;H300A;R849A;H854A)
T1 sequence: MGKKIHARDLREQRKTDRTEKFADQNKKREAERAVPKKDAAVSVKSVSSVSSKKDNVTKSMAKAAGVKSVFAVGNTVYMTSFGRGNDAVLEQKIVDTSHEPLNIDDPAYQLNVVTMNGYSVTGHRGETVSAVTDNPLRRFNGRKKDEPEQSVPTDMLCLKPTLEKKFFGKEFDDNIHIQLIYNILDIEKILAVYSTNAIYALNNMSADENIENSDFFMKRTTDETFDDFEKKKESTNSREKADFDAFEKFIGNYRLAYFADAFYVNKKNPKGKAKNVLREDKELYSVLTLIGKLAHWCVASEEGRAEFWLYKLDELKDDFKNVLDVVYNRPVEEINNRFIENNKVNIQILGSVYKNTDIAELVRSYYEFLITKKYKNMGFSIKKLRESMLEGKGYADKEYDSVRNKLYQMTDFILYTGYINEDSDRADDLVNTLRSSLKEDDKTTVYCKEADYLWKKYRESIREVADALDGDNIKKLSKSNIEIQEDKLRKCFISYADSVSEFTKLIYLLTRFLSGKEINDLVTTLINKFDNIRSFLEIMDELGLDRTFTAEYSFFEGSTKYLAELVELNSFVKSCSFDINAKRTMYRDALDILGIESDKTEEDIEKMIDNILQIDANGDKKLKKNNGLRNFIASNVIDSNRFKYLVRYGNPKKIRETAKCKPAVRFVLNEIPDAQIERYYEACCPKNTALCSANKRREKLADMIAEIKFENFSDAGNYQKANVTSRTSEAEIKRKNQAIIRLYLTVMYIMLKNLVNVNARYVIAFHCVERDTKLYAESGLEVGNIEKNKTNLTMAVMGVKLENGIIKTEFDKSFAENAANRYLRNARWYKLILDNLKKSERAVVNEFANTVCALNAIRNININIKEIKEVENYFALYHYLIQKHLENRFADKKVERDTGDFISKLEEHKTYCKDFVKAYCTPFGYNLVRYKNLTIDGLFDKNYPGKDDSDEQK

B1: target 1 G12A,A14U (mixed)
RNA 1: CACCCGUGCAAAAAUGCAGGGGUCUAAAACUGAGCGGAUAACCUCUCUAUGG
RNA 2: GGGAAUGGAUCCACAUCUACGAAUUCGUACCAUAGAGUGAUUAUCCGCUCACCGAGAUCGGAAGAGCACACGU
B2: target 1 C6U,C21A (mixed)
RNA 1: CACCCGUGCAAAAAUGCAGGGGUCUAAAACUGAGCGGAUAACCUCUCUAUGG
RNA 2: GGGAAUGGAUCCACAUCUACGAAUUCGUACAAUAGAGAGGUUAUCUGCUCACCGAGAUCGGAAGAGCACACGU
B3: target 1 insG 3' of 18,insA 3' of 5 (mixed)
RNA 1: CACCCGUGCAAAAAUGCAGGGGUCUAAAACUGAGCGGAUAACCUCUCUAUGG
RNA 2: GGGAAUGGAUCCACAUCUACGAAUUCGUACCAUAGGAGAGGUUAUCCGACUCACCGAGAUCGGAAGAGCACACGU
B4: target 2 MT 5'PFS GAA 3'PFS ACA (mixed)
RNA 1: CACCCGUGCAAAAUUGCAGGGGUCUAAAACCUUCUCCAAAUUGUUUCAUCCU
RNA 2: GGGAAUGGAUCCACAUCUACGAAUUCGAAAGGAUGAAACAAUUUGGAGAAGACAAGAUCGGAAGAGCACACGU
B5: target 2 MT 5'PFS UAC 3'PFS UCA (mixed)
RNA 1: CACCCGUGCAAAAUUGCAGGGGUCUAAAACCUUCUCCAAAUUGUUUCAUCCU
RNA 2: GGGAAUGGAUCCACAUCUACGAAUUCUACAGGAUGAAACAAUUUGGAGAAGUCAAGAUCGGAAGAGCACACGU
B6: target 2 MT 5'PFS UGC 3'PFS UAC (mixed)
RNA 1: CACCCGUGCAAAAUUGCAGGGGUCUAAAACCUUCUCCAAAUUGUUUCAUCCU
RNA 2: GGGAAUGGAUCCACAUCUACGAAUUCUGCAGGAUGAAACAAUUUGGAGAAGUACAGAUCGGAAGAGCACACGU
B7: target 2 MT 5'PFS GUA 3'PFS CAC (mixed)
RNA 1: CACCCGUGCAAAAUUGCAGGGGUCUAAAACCUUCUCCAAAUUGUUUCAUCCU
RNA 2: GGGAAUGGAUCCACAUCUACGAAUUCGUAAGGAUGAAACAAUUUGGAGAAGCACAGAUCGGAAGAGCACACGU
B8: target 2 MT 5'PFS UGG 3'PFS CUA (mixed)
RNA 1: CACCCGUGCAAAAUUGCAGGGGUCUAAAACCUUCUCCAAAUUGUUUCAUCCU
RNA 2: GGGAAUGGAUCCACAUCUACGAAUUCUGGAGGAUGAAACAAUUUGGAGAAGCUAAGAUCGGAAGAGCACACGU
B9: target 2 MT 5'PFS UGA 3'PFS CGA (mixed)
RNA 1: CACCCGUGCAAAAUUGCAGGGGUCUAAAACCUUCUCCAAAUUGUUUCAUCCU
RNA 2: GGGAAUGGAUCCACAUCUACGAAUUCUGAAGGAUGAAACAAUUUGGAGAAGCGAAGAUCGGAAGAGCACACGU
B10: target 2 MT 5'PFS UGC 3'PFS CAU (mixed)
RNA 1: CACCCGUGCAAAAUUGCAGGGGUCUAAAACCUUCUCCAAAUUGUUUCAUCCU
RNA 2: GGGAAUGGAUCCACAUCUACGAAUUCUGCAGGAUGAAACAAUUUGGAGAAGCAUAGAUCGGAAGAGCACACGU
B11: target 2 MT 5'PFS GGG 3'PFS UGU (mixed)
RNA 1: CACCCGUGCAAAAUUGCAGGGGUCUAAAACCUUCUCCAAAUUGUUUCAUCCU
RNA 2: GGGAAUGGAUCCACAUCUACGAAUUCGGGAGGAUGAAACAAUUUGGAGAAGUGUAGAUCGGAAGAGCACACGU
B12: target 2 MT 5'PFS UGC 3'PFS UAA (mixed)
RNA 1: CACCCGUGCAAAAUUGCAGGGGUCUAAAACCUUCUCCAAAUUGUUUCAUCCU
RNA 2: GGGAAUGGAUCCACAUCUACGAAUUCUGCAGGAUGAAACAAUUUGGAGAAGUAAAGAUCGGAAGAGCACACGU
B13: target 2 MT 5'PFS UGC 3'PFS UAU (mixed)
RNA 1: CACCCGUGCAAAAUUGCAGGGGUCUAAAACCUUCUCCAAAUUGUUUCAUCCU
RNA 2: GGGAAUGGAUCCACAUCUACGAAUUCUGCAGGAUGAAACAAUUUGGAGAAGUAUAGAUCGGAAGAGCACACGU
B14: target 2 MT 5'PFS UGC 3'PFS CAG (mixed)
RNA 1: CACCCGUGCAAAAUUGCAGGGGUCUAAAACCUUCUCCAAAUUGUUUCAUCCU
RNA 2: GGGAAUGGAUCCACAUCUACGAAUUCUGCAGGAUGAAACAAUUUGGAGAAGCAGAGAUCGGAAGAGCACACGU
B15: target 2 MT 5'PFS UGA 3'PFS CGC (mixed)
RNA 1: CACCCGUGCAAAAUUGCAGGGGUCUAAAACCUUCUCCAAAUUGUUUCAUCCU
RNA 2: GGGAAUGGAUCCACAUCUACGAAUUCUGAAGGAUGAAACAAUUUGGAGAAGCGCAGAUCGGAAGAGCACACGU
B16: target 2 MT 5'PFS GGG 3'PFS UGC (mixed)
RNA 1: CACCCGUGCAAAAUUGCAGGGGUCUAAAACCUUCUCCAAAUUGUUUCAUCCU
RNA 2: GGGAAUGGAUCCACAUCUACGAAUUCGGGAGGAUGAAACAAUUUGGAGAAGUGCAGAUCGGAAGAGCACACGU
B17: target 2 MT 5'PFS UUU 3'PFS UUU (mixed)
RNA 1: CACCCGUGCAAAAUUGCAGGGGUCUAAAACCUUCUCCAAAUUGUUUCAUCCU
RNA 2: GGGAAUGGAUCCACAUCUACGAAUUCUUUAGGAUGAAACAAUUUGGAGAAGUUUAGAUCGGAAGAGCACACGU
B18: target 2 MT 5'PFS UGC 3'PFS CAA (mixed)
RNA 1: CACCCGUGCAAAAUUGCAGGGGUCUAAAACCUUCUCCAAAUUGUUUCAUCCU
RNA 2: GGGAAUGGAUCCACAUCUACGAAUUCUGCAGGAUGAAACAAUUUGGAGAAGCAAAGAUCGGAAGAGCACACGU
B19: target 2 MT 5'PFS UGG 3'PFS CUU (mixed)
RNA 1: CACCCGUGCAAAAUUGCAGGGGUCUAAAACCUUCUCCAAAUUGUUUCAUCCU
RNA 2: GGGAAUGGAUCCACAUCUACGAAUUCUGGAGGAUGAAACAAUUUGGAGAAGCUUAGAUCGGAAGAGCACACGU
B20: target 2 MT 5'PFS GAG 3'PFS AGG (mixed)
RNA 1: CACCCGUGCAAAAUUGCAGGGGUCUAAAACCUUCUCCAAAUUGUUUCAUCCU
RNA 2: GGGAAUGGAUCCACAUCUACGAAUUCGAGAGGAUGAAACAAUUUGGAGAAGAGGAGAUCGGAAGAGCACACGU
B21: target 2 MT 5'PFS UAC 3'PFS UCC (mixed)
RNA 1: CACCCGUGCAAAAUUGCAGGGGUCUAAAACCUUCUCCAAAUUGUUUCAUCCU
RNA 2: GGGAAUGGAUCCACAUCUACGAAUUCUACAGGAUGAAACAAUUUGGAGAAGUCCAGAUCGGAAGAGCACACGU
B22: target 2 MT 5'PFS CGC 3'PFS UAG (mixed)
RNA 1: CACCCGUGCAAAAUUGCAGGGGUCUAAAACCUUCUCCAAAUUGUUUCAUCCU
RNA 2: GGGAAUGGAUCCACAUCUACGAAUUCCGCAGGAUGAAACAAUUUGGAGAAGUAGAGAUCGGAAGAGCACACGU
B23: target 2 MT 5'PFS GAU 3'PFS CCG (mixed)
RNA 1: CACCCGUGCAAAAUUGCAGGGGUCUAAAACCUUCUCCAAAUUGUUUCAUCCU
RNA 2: GGGAAUGGAUCCACAUCUACGAAUUCGAUAGGAUGAAACAAUUUGGAGAAGCCGAGAUCGGAAGAGCACACGU
B24: target 2 MT 5'PFS AGG 3'PFS CAA (mixed)
RNA 1: CACCCGUGCAAAAUUGCAGGGGUCUAAAACCUUCUCCAAAUUGUUUCAUCCU
RNA 2: GGGAAUGGAUCCACAUCUACGAAUUCAGGAGGAUGAAACAAUUUGGAGAAGCAAAGAUCGGAAGAGCACACGU
B25: target 2 MT 5'PFS AAA 3'PFS CUG (mixed)
RNA 1: CACCCGUGCAAAAUUGCAGGGGUCUAAAACCUUCUCCAAAUUGUUUCAUCCU
RNA 2: GGGAAUGGAUCCACAUCUACGAAUUCAAAAGGAUGAAACAAUUUGGAGAAGCUGAGAUCGGAAGAGCACACGU
B26: target 2 MT 5'PFS GAA 3'PFS ACU (mixed)
RNA 1: CACCCGUGCAAAAUUGCAGGGGUCUAAAACCUUCUCCAAAUUGUUUCAUCCU
RNA 2: GGGAAUGGAUCCACAUCUACGAAUUCGAAAGGAUGAAACAAUUUGGAGAAGACUAGAUCGGAAGAGCACACGU
B27: target 2 MT 5'PFS CGC 3'PFS UGU (mixed)
RNA 1: CACCCGUGCAAAAUUGCAGGGGUCUAAAACCUUCUCCAAAUUGUUUCAUCCU
RNA 2: GGGAAUGGAUCCACAUCUACGAAUUCCGCAGGAUGAAACAAUUUGGAGAAGUGUAGAUCGGAAGAGCACACGU

The term Kd denotes the constant that tells how readily two partners part at equilibrium.

The series deals with T1, EsCas13d, nuclease-dead. In words: crRNA (strand 1, pre-loaded); Mg2+; 40 mM Tris-HCl pH 7.5, 150 mM NaCl, 6 mM MgCl2, 1 mM DTT, 0.1% Tween-20, 0.2 mg/ml BSA; 25 C; 10 min per concentration, then washed. The conditions noted are these: tags: His6-TwinStrep-SUMO cleaved; N-terminal SNAP kept (SNAP-Surface 488); label: 3' end held by stalled T7 RNA polymerase.
In turn, B1 yielded a Kd of 26.3 ± 1.7 nM.

In the case of B2, the equilibrium dissociation constant (Kd) came to 26.2 ± 1.6 nM.

With B3, the dissociation constant Kd turned out to be 36 ± 4 nM.

In turn, B4 registered a Kd of 12 ± 4 nM.

With B5, the Kd was 6.3 ± 1 nM.

On to B6, for which binding was put at a Kd of 21 ± 4 nM. Against the preceding molecule, the Kd is about 3.3-fold higher.

In turn, B7 came in with a Kd of 9.6 ± 1.2 nM.

On to B8, for which the affinity, expressed as Kd, was 7 ± 1.3 nM.

Turning to B9, the Kd is 7.2 ± 0.8 nM.

In turn, B10 registered a Kd of 25 ± 8 nM.

Molecule B11 came in with a Kd of 12.2 ± 0.8 nM.

In turn, B12 showed a Kd of 17 ± 6 nM.

On to B13, for which the Kd was found to be 14.3 ± 2.6 nM.

In turn, B14 gave a Kd of 16.2 ± 2.2 nM.

The molecule B15 showed a Kd of 8.5 ± 1.1 nM.

On to B16, for which binding was put at a Kd of 12.8 ± 1.4 nM.

B17: the dissociation constant (Kd) was determined as 20 ± 4 nM.

B18 came in with a Kd of 13 ± 2.3 nM.

B19: the Kd amounted to 7 ± 0.7 nM.

Turning to B20, the affinity, expressed as Kd, was 5.5 ± 0.4 nM.

For the molecule B21, the Kd is 15.1 ± 2.8 nM.

Turning to B22, the Kd was 3.3 ± 0.5 nM.

As to B23, the dissociation constant (Kd) was determined as 14.2 ± 1.4 nM.

Consider B24, for which binding was put at a Kd of 4.1 ± 0.7 nM.

For the molecule B25, the affinity, expressed as Kd, was 5.5 ± 1.1 nM.

Take B26: binding was put at a Kd of 13.3 ± 2.6 nM.

In turn, B27 displayed a Kd of 5.6 ± 0.5 nM.
